{"source": "paper PMC4601081", "about": "“A Single α Helix Drives Extensive Remodeling of the Proteasome Lid and Completion of Regulatory Particle Assembly” (Cell, 2015)", "binders": {"B1": {"name": "N12pep, fluorescently labeled peptide of the Rpn12 C-terminal helix (peptide)", "peptide": "DQKTNIIEKAMDYAISIENIK(5,6‑carboxyfluorescein)", "notes": "Rpn12, S. cerevisiae, C-terminal helix; added lysine that carries 5,6-carboxyfluorescein; also called Rpn12 C-terminal helix peptide; source: synthetic peptide (Elim Biopharmaceuticals)"}, "B2": {"name": "Rpn12, recombinant, full-length (natural protein, S. cerevisiae, UniProt P32496 1-274, looked up)", "chain": "MPSLAELTKSLSIAFENGDYAACEKLLPPIKIELIKNNLLIPDLSIQNDIYLNDLMITKRILEVGALASIQTFNFDSFENYFNQLKPYYFSNNHKLSESDKKSKLISLYLLNLLSQNNTTKFHSELQYLDKHIKNLEDDSLLSYPIKLDRWLMEGSYQKAWDLLQSGSQNISEFDSFTDILKSAIRDEIAKNTELSYDFLPLSNIKALLFFNNEKETEKFALERNWPIVNSKVYFNNQSKEKADYEDEMMHEEDQKTNIIEKAMDYAISIENIV", "notes": "Rpn12, S. cerevisiae proteasome lid subunit; also called recombinant Rpn12; purified Rpn12"}, "B3": {"name": "Rpn11, subunit of LP2 and lid purified from yeast (natural protein, S. cerevisiae, UniProt P43588 1-306, looked up)", "chain": "MERLQRLMMNSKVGSADTGRDDTKETVYISSIALLKMLKHGRAGVPMEVMGLMLGEFVDDYTVNVVDVFAMPQSGTGVSVEAVDDVFQAKMMDMLKQTGRDQMVVGWYHSHPGFGCWLSSVDVNTQKSFEQLNSRAVAVVVDPIQSVKGKVVIDAFRLIDTGALINNLEPRQTTSNTGLLNKANIQALIHGLNRHYYSLNIDYHKTAKETKMLMNLHKEQWQSGLKMYDYEEKEESNLAATKSMVKIAEQYSKRIEEEKELTEEELKTRYVGRQDPKKHLSETADETLENNIVSVLTAGVNSVAIK", "notes": "Rpn11, S. cerevisiae proteasome lid subunit; source: purified from S. cerevisiae as part of LP2 or lid"}, "B4": {"name": "Rpn7, subunit of LP2 and lid purified from yeast (natural protein, S. cerevisiae, UniProt Q06103 1-429, looked up)", "chain": "MVDVEEKSQEVEYVDPTVNRVPNYEVSEKAFLLTQSKVSIEQRKEAAEFVLAKIKEEEMAPYYKYLCEEYLVNNGQSDLEHDEKSDSLNEWIKFDQELYNELCKKNESKIKELNEKIQKLEEDDEGELEQAQAWINLGEYYAQIGDKDNAEKTLGKSLSKAISTGAKIDVMLTIARLGFFYNDQLYVKEKLEAVNSMIEKGGDWERRNRYKTYYGIHCLAVRNFKEAAKLLVDSLATFTSIELTSYESIATYASVTGLFTLERTDLKSKVIDSPELLSLISTTAALQSISSLTISLYASDYASYFPYLLETYANVLIPCKYLNRHADFFVREMRRKVYAQLLESYKTLSLKSMASAFGVSVAFLDNDLGKFIPNKQLNCVIDRVNGIVETNRPDNKNAQYHLLVKQGDGLLTKLQKYGAAVRLTGSDRV", "notes": "Rpn7, S. cerevisiae proteasome lid subunit; source: purified from S. cerevisiae as part of LP2 or lid"}}, "conditions_in_all_cases": "both partners purified", "key": {"[1]": {"biological_target": "T1, lid particle 2 (LP2), recombinant (S. cerevisiae, UniProt P40016 1-523; Q12250 1-445; Q12377 1-434; Q06103 1-429; Q08723 1-338; Q04062 …)", "T1 construct": "Rpn3, S. cerevisiae proteasome lid subunit; Rpn5, S. cerevisiae proteasome lid subunit; Rpn6, S. cerevisiae proteasome lid subunit; Rpn7, S. cerevisiae proteasome lid subunit; Rpn8, S. cerevisiae proteasome lid subunit; Rpn9, S. cerevisiae proteasome lid subunit; Rpn11, S. cerevisiae proteasome lid subunit; Sem1, S. cerevisiae proteasome lid subunit; legends speak of 'untagged LP2'; operons as in …", "T1 sequence (Q12377 whole entry, chain 3 of 3)": "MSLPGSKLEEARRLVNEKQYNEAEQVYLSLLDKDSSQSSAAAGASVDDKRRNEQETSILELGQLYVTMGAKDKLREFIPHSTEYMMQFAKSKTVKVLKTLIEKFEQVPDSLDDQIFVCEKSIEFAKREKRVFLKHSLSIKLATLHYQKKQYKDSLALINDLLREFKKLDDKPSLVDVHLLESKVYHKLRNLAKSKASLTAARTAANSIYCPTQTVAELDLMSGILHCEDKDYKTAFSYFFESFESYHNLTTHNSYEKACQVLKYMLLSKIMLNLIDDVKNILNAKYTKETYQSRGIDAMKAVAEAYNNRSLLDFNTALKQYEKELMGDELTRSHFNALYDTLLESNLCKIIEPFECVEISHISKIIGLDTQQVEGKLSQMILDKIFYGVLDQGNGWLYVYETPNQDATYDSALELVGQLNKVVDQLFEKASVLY", "T1 sequence (Q04062 whole entry, chain 6 of 3)": "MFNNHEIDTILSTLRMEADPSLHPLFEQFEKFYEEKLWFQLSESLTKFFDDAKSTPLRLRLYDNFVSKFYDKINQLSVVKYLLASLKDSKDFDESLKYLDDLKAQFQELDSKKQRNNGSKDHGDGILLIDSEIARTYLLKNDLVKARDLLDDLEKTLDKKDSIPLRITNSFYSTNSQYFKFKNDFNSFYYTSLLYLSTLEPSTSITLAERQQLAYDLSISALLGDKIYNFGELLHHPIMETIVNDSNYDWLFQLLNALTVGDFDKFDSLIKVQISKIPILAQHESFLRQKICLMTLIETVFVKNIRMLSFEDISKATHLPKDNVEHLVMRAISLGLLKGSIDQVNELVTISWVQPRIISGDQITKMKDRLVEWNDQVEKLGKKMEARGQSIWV", "T1 sequence (O94742 whole entry, chain 8 of 3, further chain)": "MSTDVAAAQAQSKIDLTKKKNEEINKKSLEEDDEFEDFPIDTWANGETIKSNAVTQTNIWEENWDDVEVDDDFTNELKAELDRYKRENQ", "assay": "fluorescence polarisation; fluorescence anisotropy: 1 uM fluorescein-labelled N12pep in Lid Buffer alone, with 1 uM LP2, 5 uM Rpn12, or both; 25°C 20 min; excitation 485 nm, emission 513-528 nm"}, "[2]": {"biological_target": "T1, lid particle 2 (LP2), recombinant", "assay": "negative-stain EM; purified recombinant LP2 treated with an equimolar concentration of recombinant Rpn12; 2D class averages"}, "[3]": {"biological_target": "T2, Rpn8, subunit of LP2 and lid purified from yeast (S. cerevisiae, UniProt Q08723 1-338)", "T2 construct": "Rpn8, S. cerevisiae proteasome lid subunit; source: purified from S. cerevisiae as part of LP2 or lid", "T2 sequence (looked up)": "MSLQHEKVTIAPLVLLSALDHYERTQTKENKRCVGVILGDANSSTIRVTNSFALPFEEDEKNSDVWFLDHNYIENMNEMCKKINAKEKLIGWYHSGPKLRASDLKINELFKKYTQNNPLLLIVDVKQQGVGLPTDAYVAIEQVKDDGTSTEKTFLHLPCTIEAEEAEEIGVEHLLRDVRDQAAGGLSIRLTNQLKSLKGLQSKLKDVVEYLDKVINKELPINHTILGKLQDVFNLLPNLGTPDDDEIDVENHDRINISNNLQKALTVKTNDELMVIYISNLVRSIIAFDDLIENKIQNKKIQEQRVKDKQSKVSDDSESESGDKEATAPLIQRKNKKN", "assay": "cross-linking; QCLMS of LP2 purified from yeast as a whole complex: BS3-d0 / BS3-d4 at 1:200 protein to cross-linker, Buffer HA, 30°C 1 h; monomeric cross-linked complex cut from SDS-PAGE, trypsin, LC-MS/MS"}, "[4]": {"biological_target": "T3, Rpn5, subunit of LP2 and lid purified from yeast (S. cerevisiae, UniProt Q12250 1-445)", "T3 construct": "Rpn5, S. cerevisiae proteasome lid subunit; source: purified from S. cerevisiae as part of LP2 or lid", "T3 sequence (looked up)": "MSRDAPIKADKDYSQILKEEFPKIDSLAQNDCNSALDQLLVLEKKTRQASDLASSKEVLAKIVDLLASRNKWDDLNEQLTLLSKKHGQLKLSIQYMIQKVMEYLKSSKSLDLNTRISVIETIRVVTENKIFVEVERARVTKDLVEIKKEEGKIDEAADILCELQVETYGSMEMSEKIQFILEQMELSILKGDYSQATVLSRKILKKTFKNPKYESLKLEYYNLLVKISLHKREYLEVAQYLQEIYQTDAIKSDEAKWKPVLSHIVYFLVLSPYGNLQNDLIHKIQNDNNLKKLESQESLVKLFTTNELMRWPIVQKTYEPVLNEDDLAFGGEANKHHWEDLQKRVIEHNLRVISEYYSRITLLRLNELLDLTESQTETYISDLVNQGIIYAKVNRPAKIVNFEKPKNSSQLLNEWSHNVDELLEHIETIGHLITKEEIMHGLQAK", "assay": "cross-linking; QCLMS of LP2 purified from yeast as a whole complex: BS3-d0 / BS3-d4 at 1:200 protein to cross-linker, Buffer HA, 30°C 1 h; monomeric cross-linked complex cut from SDS-PAGE, trypsin, LC-MS/MS"}, "[5]": {"biological_target": "T4, Rpn3, subunit of LP2 and lid purified from yeast (S. cerevisiae, UniProt P40016 1-523)", "T4 construct": "Rpn3, S. cerevisiae proteasome lid subunit; source: purified from S. cerevisiae as part of LP2 or lid", "T4 sequence (looked up)": "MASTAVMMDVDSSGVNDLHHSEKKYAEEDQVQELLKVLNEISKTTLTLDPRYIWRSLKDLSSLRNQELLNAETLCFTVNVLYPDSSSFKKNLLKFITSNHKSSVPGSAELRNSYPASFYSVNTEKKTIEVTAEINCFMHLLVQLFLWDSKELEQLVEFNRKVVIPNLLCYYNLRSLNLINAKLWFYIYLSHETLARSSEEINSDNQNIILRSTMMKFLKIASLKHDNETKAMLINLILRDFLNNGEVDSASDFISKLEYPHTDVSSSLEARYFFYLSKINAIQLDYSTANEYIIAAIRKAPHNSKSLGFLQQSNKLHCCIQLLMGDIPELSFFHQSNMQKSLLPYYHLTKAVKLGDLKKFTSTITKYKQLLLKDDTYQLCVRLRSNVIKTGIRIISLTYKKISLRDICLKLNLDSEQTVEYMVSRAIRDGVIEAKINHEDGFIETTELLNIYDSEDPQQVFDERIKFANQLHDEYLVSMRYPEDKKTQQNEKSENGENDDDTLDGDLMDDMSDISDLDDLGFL", "assay": "cross-linking; QCLMS of LP2 purified from yeast as a whole complex: BS3-d0 / BS3-d4 at 1:200 protein to cross-linker, Buffer HA, 30°C 1 h; monomeric cross-linked complex cut from SDS-PAGE, trypsin, LC-MS/MS"}}, "note": "Ends that are not written are not given here.", "data": [{"binder": "B1", "values": [{"measurement": "binding result", "setting": "[1]", "value": "binds"}]}, {"binder": "B2", "values": [{"measurement": "binding result", "setting": "[2]", "value": "binds"}]}, {"binder": "B3", "values": [{"measurement": "binding result", "setting": "[3]", "value": "binds"}, {"measurement": "binding result", "setting": "[4]", "value": "binds"}]}, {"binder": "B4", "values": [{"measurement": "binding result", "setting": "[5]", "value": "binds"}]}]}
